B1: mAb 265 (antibody, V domains shown)
VH: EVQLLESGGGLVQPGGSLRLSCAASGFTFRSSSMTWVRQAPGKGLEWVSGIRGSGGRTYDAESVKGRFTISRDNSKNTLYLQMNSLRAEDTAEYFCAKLYDYYNDYMDVWGKGTTVTVSS
VL: SYELTQPLSVSVALGQTARITCGGNNIGSKNVHWYQQKPGQAPVLVIYRDSNRPSGIPERFSGSNSGNTATLTISRAQAGDEADYYCQVWDSSTAVFGGGTQLTAL
notes: VH/VL only
B2: mAb 190 (antibody, V domains shown)
VH: QVQLVESGGGVVQPGRSLRLSCAASGFTFSGYGMHWVRQAPGKGLEWVAIIYYNGKKEYYADSVKGRFTISRDNSKNTLYLQMNSLRAEDTAVYYCTRGEGYNWFDPWGQGTLVTVSS
VL: EIVMTQSPATLSVSPGERATLSCRASQSVSSNLAWYQQKPGQAPRLLIYGASTRATGIPARFSGSGSGTEFTLTISSLQSEDFAVYYCKQYNNWPLTFGGGTKVEIK
notes: VH/VL only
B3: mAb 208 (antibody, V domains shown)
VH: QEQLVESGGGVVQPGRSLRLSCAASGFTFSSYGMHWVRQAPGKGLEWVAIIWYNGKKKDYADSVKGRFTISRDNSKSTLYLQMNSLRAEDTAVYYCARGLGYNWFDPWGQGTLVTVSS
VL: EIVLTQSPDFQSVTPMEKVTIACRASQNIGSSLHWYQQKPDQSPKLLIKYASQSFSGVPSRFSGSGSGTDFTLTINSLEAEDAATYYCHQSSSFPNTFGQGTKLEIK
notes: VH/VL only
B4: mAb 239 (antibody, V domains shown)
VH: QEKLVESGGGVVQPGRSLRLSCVASGFTFSGFGMHWVRQAPGKGLEWVAIIYYDGKNKYYADSVKGRFTISRDNSKNTLYLQMNSLRAEDTAVYYCVRGPGYNWFDPWGQGTLVTVSS
VL: EIVLTQSPDFQSVTPKEKVTITCRASQSIGSSLHWYQQKPDQSPKLLIKYASQSFSGVPSRFSGSGSGTDFTLTINSLEAEDAATYYCHQSSSLPYTFGQGTKLEIK
notes: VH/VL only
B5: mAb 247 (antibody, V domains shown)
VH: QEQLVESGGGVVQPGRSLRLSCAASGFIFSSYGMHWVRQAPGKGLEWVAIIWYNGKKRDYADSVKGRFTISRDNSKNTLYLQMNSLRAEDTAVYYCARGLGYNWFDPWGQGTLVTVSS
VL: EIVLTQSPDFQSVTPKDKVTITCRASQSIGSSLHWYQQKPDQSPKLLIKYASQSFSGVPSRFSGSGSGTDFTLTINSLEAEDAATYYCHQSSTLPYTFGQGTKLEIK
notes: VH/VL only
B6: mAb 234 (antibody, V domains shown)
VH: QEQLVESGGGVVQPGRSLRLSCAASGFIFSSYGMHWVRQAPGKGLEWVAIIWYNGKKRDYADSVKGRFTISRDNSKNTLYLQMNSLRVEDTAVYYCARGLGYNWFDSWGQGTLVTVSS
VL: EIVLTQSPDFQSVTPKEKVTITCRASQSIGSSLHWYQQKPDQSPKLLIKYASQSFSGVPSRFSGSGSGTDFTLTINSLEAEDAATYYCHQSSSLPYTFGQGTKLEIK
notes: VH/VL only
B7: mAb 249 (antibody, V domains shown)
VH: QEQLVESGGGVVQPGRSLRLSCAASGFTFRSYGMHWVRQAPGKGLEWVAIIWYDGKNKYYADSVKGRFTISRDNSKNTLYLQMNSLRAEDTAVYYCARGLGYNWFDPWGQGTLVTVSS
VL: EIVLTQSPDFQSVTPKEKVTITCRASQSIGSSLHWYQQKPDQSPKLLIKYASQSFSGVPSRFSGSGSGTDFTLTINSLEAEDAATYYCHQSSSLPYTFGQGTKLEIK
notes: VH/VL only
B8: mAb 244 (antibody, V domains shown)
VH: QEQLVESGGGVVQPGRSLRLSCAASGFTFRSYGMHWVRQAPGKGLEWVAIIWYDGKNKYYADSVKGRFTISRDNSKNTLYLQMNSLRVEDTAVYYCARGLGYNWFDPWGQGTLVTVTS
VL: EIVLTQSPDFQSVTPKEKVTITCRASQSIGSSLHWYQQKPDQSPKLLIKYASQTFSGVPSRFSGSGSGTDFTLTINSLEVEDAATYYCHQSSSLPNTFGQGTKLEIK
notes: VH/VL only
B9: mAb 202 (antibody, V domains shown)
VH: QVQLVESGGGVVQPGRSLRLSCAASGFTFSGYGMHWVRQAPGKGLEWVAIIYYNGKKEYYADSVKGRFTISRDNSKNTLYLQMNSLRAEDTAVYFCTRGEGYNWFDPWGQGTLVTVSS
VL: EIVMTQSPATLSVSPGERATLSCRASQSVSSNLAWYQQKPGQAPRLLIYGASTRATGIPARFSGSGSGTEFTLTISSLQSEDFAVYYCKQYKNWPLTFGGGTKVEIK
notes: VH/VL only
B10: mAb 227 (antibody, V domains shown)
VH: QEQLVESGGGVVQPGRSLRLSCAASGFIFSSYGMHWVRQAPGKGLEWVAIIWYNGKKRDYADSVKGRFTISRDNSKNTLYLQMNSLRAEDTAVYYCARGLGYNWFDPWGQGTLVTVSS
VL: EIVLTQSPDFQSVTPKEKVTITCRASQSIGSSLHWYQQKPDQSPKLLIKYASQSFSGVPSRFSGSGSGTDFTLTINSLEAEDAATYYCHQSSSLPYTFGQGTKLEIK
notes: VH/VL only
B11: mAb 207 (antibody, V domains shown)
VH: QVQLVESGGGVVQPGRSLRLSCAASGFTFSGYGMHWVRQAPGKGLEWVAIIYYNGKKEYYADSVKGRFTISRDNSRNTLFLQMNSLRAEDTAIYYCTRGEGYNWFDPWGQGTLVTVSS
VL: EIVMTQSPATLSVSPGERATLSCRASQSVSSNLAWYQQKPGQAPRLLIYGASTRATGIPARFSGSGSGTEFTLTISSLLSEDFAVYYCKQYNNWPLTFGGGTKVEIK
notes: VH/VL only
B12: mAb 223 (antibody, V domains shown)
VH: QVQLVESGGGVVQPGRSLRLSCAASGFTFSGYGMHWVRQAPGKGLEWVAIIYYNGNNRKYADSVKGRFTISRDNSKNMVSLQMNSLRVEDTAIYYCTRGDGYNWFVTWGQGTLVTVSS
VL: EIVMTQSPATLSVSPGEGATLSCRASQSVSSNLAWYHQKPGQAPRLLIYGASTRATGIPVRFSGSGSGTEFTLTISSLQSDDFAVYFCQQYNNWPLTFGGGTKVEIK
notes: VH/VL only
B13: mAb 200 (antibody, V domains shown)
VH: QVQLAESGGGVVQPGRSLRLSCAASGFTFSGYGMHWVRQAPGKGLEWVAIIYYNGKKEYYADSVKGRFTISRDNSKNTLYLQMNSLRAEDTAVYFCTRGEGYNWFDPWGQGTLVTVSS
VL: EIVMTQSPATLSVSPGERATLSCRASQSVSSNLAWYQQKPGQAPRLLIYGASTRATGIPARFSGSGSGTEFTLTISSLQSEDFAVYYCKQYKNWPLTFGGGTKVEIK
notes: VH/VL only
B14: mAb 211 (antibody, V domains shown)
VH: QVQLVESGGGVVQPGRSLRLSCAASGFTFSGYGMHWVRQAPGKGLEWVAIIYYNGKREYYADSVKGRFTISRDNSKNTLYLQMNSLRAEDTAVYYCTRGEGYNWFDPWGQGTLVTVSS
VL: EIVMTQSPATLSVSPGERATLSCRASQSVSSNLAWYQQKPGQAPRLLIYGASTRATGIPARFSGSGSGTEFTLTISSLQSEDFAVYYCKHYNNWPLTFGGGTKVEIK
notes: VH/VL only
B15: mAb 246 (antibody, V domains shown)
VH: QEQLVESGGGVVQPGRSLRLSCAASGFTFRSYGMHWVRQAPGKGLEWVAIIWYDGKNKYYADSVKGRFTISRDNSKNTLYLQMNSLRAEDTAVYYCARGLGYNWFDPWGQGTLVTVSS
VL: EIVLTQSPDFQSVTPKEKVTITCRASQSIGSSLHWYQQKPDQSPKLLIKYGSQSFSGVPSRFSGSGSGTDFTLTINSLEAEDAATYYCHQSSSLPYTFGQGTKLEIK
notes: VH/VL only
B16: mAb 241 (antibody, V domains shown)
VH: QEQLVESGGGVVQPGRSLRLSCAASGFIFSSYGMHWVRQAPGKGLEWVAIIWYNGKKRDYADSVKGRFTISRDNSKNTLYLQMNSLRAEDTAVYYCARGLGYNWFDPWGQGTLVTVSS
VL: AIVLTQSPDFQSVTPKEKVTITCRASQNIGSSLHWYQQKPDQSPKLLIKYASQSFSGVPSRFSGSGSGTDFTLTINSLEAEDAATYYCHQSGSLPYTFGQGTKLEIK
notes: VH/VL only
B17: mAb 232 (antibody, V domains shown)
VH: QEQLVESGGGVVQPGRSLRLSCAASGFTFSSYGMHWVRQAPGKGLEWVAIIWYNGRKKDYADSVKGRFTISRDNSKNTLYLQMNSLRAEDTAVYYCARGLGYNWFDPWGQGTLVTVSS
VL: EIVLTQSPDFQSVTPMEKVTIACRASQSIGSSLHWYQQKPDQSPKLLIKYASQSFSGVPSRFSGSGSGTDFTLTINSLEAEDAATYYCHQSSSLPYTFGQGTKLEIK
notes: VH/VL only
B18: mAb 231 (antibody, V domains shown)
VH: QEQLVESGGGVVQPGRSLRLSCAASGFTFSSYGMHWVRQAPGKGLEWVAIIYYNGKKKDYADSVKGRFTISRDNSKNTLYLQMNSLRAEDTAVYYCVRGLGYNWFDPWGQGTLVTVSS
VL: EIVLTQSPDFQSVTPKEKVTITCRASQSIGSSLHWYQQKPDQSPKLLIKYASQSFSGVPSRFSGSGSGTDFTLTINSLEAEDAATYYCHQSSNLPYTFGQGTKLEIK
notes: VH/VL only
B19: mAb 233 (antibody, V domains shown)
VH: QGKLVESGGGVVQPGRSLRLSCVASGFTFSGYGMHWVRQVPNKGLEWVAIIYYDGKNKYYADSVKGRFTISRDNSKNMLYLQMNSLRAEDTAVYYCVRGPGYNWFDPWGQGTLVTVSS
VL: EIVLTQSPDFQSVTPKEKVTITCRASQNIGSSLHWYQQKPDQSPKLLIKLTSQSFSGVPSRFSGSGSGTDFTLTINSLEAEDAATYYCHQSSSLPYTFGQGTKLEIK
notes: VH/VL only

Each binder was assayed against T1, cynomolgus monkey CD3 expressed on cyno primary T cells (cynomolgus monkey, UniProt Q95LI5 22-198; Q95LI8 22-171; Q95LI7 23-181) (assay: flow cytometry, cyno primary T cells).
T1 construct: whole, on cells; CD3 complex on purified cynomolgus monkey CD3 pan T cells; also called cyno CD3
T1 sequence (Q95LI5 22-198, chain 1 of 3): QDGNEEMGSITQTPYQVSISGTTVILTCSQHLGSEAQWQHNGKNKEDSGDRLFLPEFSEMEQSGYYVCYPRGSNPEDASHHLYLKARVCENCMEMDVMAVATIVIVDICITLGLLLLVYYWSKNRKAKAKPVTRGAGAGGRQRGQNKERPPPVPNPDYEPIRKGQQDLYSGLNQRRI
T1 sequence (Q95LI8 22-171, chain 2 of 3): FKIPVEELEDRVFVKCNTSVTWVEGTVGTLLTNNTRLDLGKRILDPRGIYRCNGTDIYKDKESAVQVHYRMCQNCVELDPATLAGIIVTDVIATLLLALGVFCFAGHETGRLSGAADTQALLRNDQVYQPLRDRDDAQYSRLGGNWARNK
T1 sequence (Q95LI7 23-181, chain 3 of 3): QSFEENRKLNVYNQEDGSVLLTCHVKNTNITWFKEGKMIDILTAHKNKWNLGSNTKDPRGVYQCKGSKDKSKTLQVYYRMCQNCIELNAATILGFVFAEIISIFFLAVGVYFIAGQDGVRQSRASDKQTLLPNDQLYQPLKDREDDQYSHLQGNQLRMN
Procedure: Purified antibodies were confirmed to bind CD3 expressed on cells using the CytoFLEX S or LX flow cytometers (Beckman Coulter). Antibodies were diluted to 25 nM in FACS buffer (PBS+2% FBS) and were incubated with CD3-expressing cells for 30 minutes at 4° C. […] The median fluorescence intensity of the binding signal for each antibody was normalized to the isotype control to obtain a fold over isotype value. An antibody with a fold over isotype (FOI) of ≥10 was considered to be positive for binding.
B1: no binding (tested: FOI <10 (FOI >=10 = positive); 25 nM).
B2: no binding (tested: FOI <10 (FOI >=10 = positive); 25 nM).
B3: no binding (tested: FOI <10 (FOI >=10 = positive); 25 nM).
B4: no binding (tested: FOI <10 (FOI >=10 = positive); 25 nM).
B5: no binding (tested: FOI <10 (FOI >=10 = positive); 25 nM).
B6: no binding (tested: FOI <10 (FOI >=10 = positive); 25 nM).
B7: no binding (tested: FOI <10 (FOI >=10 = positive); 25 nM).
B8: no binding (tested: FOI <10 (FOI >=10 = positive); 25 nM).
B9: no binding (tested: FOI <10 (FOI >=10 = positive); 25 nM).
B10: no binding (tested: FOI <10 (FOI >=10 = positive); 25 nM).
B11: no binding (tested: FOI <10 (FOI >=10 = positive); 25 nM).
B12: no binding (tested: FOI <10 (FOI >=10 = positive); 25 nM).
B13: no binding (tested: FOI <10 (FOI >=10 = positive); 25 nM).
B14: no binding (tested: FOI <10 (FOI >=10 = positive); 25 nM).
B15: no binding (tested: FOI <10 (FOI >=10 = positive); 25 nM).
B16: no binding (tested: FOI <10 (FOI >=10 = positive); 25 nM).
B17: no binding (tested: FOI <10 (FOI >=10 = positive); 25 nM).
B18: no binding (tested: FOI <10 (FOI >=10 = positive); 25 nM).
B19: no binding (tested: FOI <10 (FOI >=10 = positive); 25 nM).
